Assays:
[1] = biological target: isolated Rpn11/Rpn8 heterodimer with Rpn11 A89F (S. cerevisiae) (UniProt P43588)
[2] = biological target: isolated Rpn11/Rpn8 heterodimer with Rpn11 A89I (S. cerevisiae) (UniProt P43588)
[3] = biological target: Rpn11, wild type, deubiquitinase subunit of the lid in the reconstituted 26S proteasome (S. cerevisiae) (UniProt P43588)
[4] = biological target: Rpn11 L132R, deubiquitinase subunit of the lid in the reconstituted receptor-deficient 26S proteasome (S. cerevisiae) (UniProt P43588)
[5] = biological target: Rpn11, wild type, deubiquitinase subunit of the lid in the reconstituted 26S proteasome (S. cerevisiae) (UniProt P43588); remark: listed apart in the source
[6] = biological target: Rpn11, wild type, deubiquitinase subunit of the lid in the reconstituted 26S proteasome (S. cerevisiae) (UniProt P43588); remark: listed apart in the source
[7] = biological target: Rpn11 A89F, deubiquitinase subunit of the lid in the reconstituted receptor-deficient 26S proteasome (S. cerevisiae) (UniProt P43588)
[8] = biological target: Rpt5, ATPase subunit of the base, in the reconstituted 26S proteasome (S. cerevisiae) (UniProt P33297)

Ubiquitin-TAMRA
deubiquitinase activity of the isolated Rpn11/Rpn8 heterodimer (0.5 μM) on 100 μM Ubiquitin-TAMRA, against wild-type Rpn11 (fluorescence polarisation, 30°C) [1]: 1.3 fold | deubiquitinase activity of the isolated Rpn11/Rpn8 heterodimer (0.5 μM) on 100 μM Ubiquitin-TAMRA, against wild-type Rpn11 (fluorescence polarisation, 30°C) [2]: 10 fold

mono-ubiquitinated GS substrate (titin I27^V15P with glycine-serine-rich initiation region, one ubiquitin K63R attached) (from UniProt P0CG63 1-76)
degradation rate of the mono-ubiquitinated GS substrate by the SspB-fused ARR-Pru-ΔUIM proteasome with wild-type Rpn11, against the non-ubiquitinated GS substrate (bulk degradation assay) [3]: 0.38 min⁻¹ | degradation rate of the mono-ubiquitinated GS substrate by the SspB-fused ARR-Pru-ΔUIM proteasome with Rpn11^L132R; no ubiquitin-mediated stimulation (bulk degradation assay) [4]: 0.25 min⁻¹

poly-ubiquitinated GS substrate (titin I27^V15P with glycine-serine-rich initiation region, long ubiquitin chains attached) (from UniProt P0CG63 1-76)
degradation rate of the GS substrate with long ubiquitin chains by SspB-fused ARR-Pru-ΔUIM proteasomes; 0.25 min^-1 for the non-ubiquitinated GS substrate (bulk degradation assay) [5]: 1 min⁻¹

unanchored K48-linked tetraubiquitin chain (from UniProt P0CG63 1-76)
average tail-insertion time constant of the wild-type proteasome without and with unanchored K48-Ub4 (single-molecule FRET substrate-processing assay) [6]: 1.39 s | SspB-delivered substrate degradation by ARR-Pru-ΔUIM-A89F proteasomes without and with K48-Ub4 (bulk degradation assay) [7]: 1.2 fold

B1: Rpn10 with the R23E, D31K and E68K mutations in its VWA domain, as subunit of the reconstituted 26S proteasome (receptor)
chain: MVLEATVLVIDNSEYSRNGDFPETRFEAQIKSVEFIFQAKRNSNPENTVGLISGAGANPRVLSTFTAKFGKILAGLHDTQIEGKLHMATALQIAQLTLKHRQNKVQHQRIVAFVCSPISDSRDELIRLAKTLKKNNVAVDIINFGEIEQNTELLDEFIAAVNNPQEETSHLLTVTPGPRLLYENIASSPIILEEGSSGMGAFGGSGGDSDANGTFMDFGVDPSMDPELAMALRLSMEEEQQRQERLRQQQQQQDQPEQSEQPEQHQDK
SspB-delivered substrate degradation by proteasomes with Rpn10^EKK against wild-type proteasomes (bulk degradation assay) [8]: 1.6 fold | s1-to-non-s1 transition rate of proteasomes with Rpn10^EKK against wild-type proteasomes (single-molecule FRET conformational dynamics assay) [8]: 40%

— publication PMC12256112
